The source of these data is paper PMC7737734.

The target in assay [1] is ZIKV soluble envelope protein E, covalently stabilized dimer (sE-cvD), A264C, V5-tagged (Zika virus (strain ArD158095)). In words: non-reducing SDS-PAGE of a disulfide-linked dimer; purified sE proteins on 10% SDS-PAGE under reducing (DTT) and nonreducing conditions, gel stained with InstantBlue.
Assay [2] concerns the target ZIKV full-length envelope protein E with A264C, as displayed on virus-like particles (VLP-cvD) (Zika virus (strain PE243)). In words: non-reducing SDS-PAGE and Western blot of a disulfide-linked dimer; purified VLPs on SDS-PAGE under reducing (DTT) or nonreducing conditions, E detected with the monoclonal antibody DIII-1B. For orientation: In western blotting, separated proteins are transferred to a membrane and probed.

As for “ZIKV soluble envelope protein E, covalently stabilized dimer (sE-cvD), A264C, V5-tagged (domain or fragment)”, in assay [1], the stoichiometry N (usually the number of molecules, sites or subunits per partner or assembly) was found to be 2.
Regarding “ZIKV full-length envelope protein E with A264C, as displayed on virus-like particles (VLP-cvD) (natural protein)”, the stoichiometry N in assay [2] was 2.
